From patent US6958322
Each block holds one molecule with its values, some of them ahead of it.

Experiments:
[1] = biological target: purified plasma factor IX (Stago) (UniProt P00740)
[2] = system: rFX/FXIa (Q-R/I) analog
[3] = system: recombinant factor X wild type (rFX)
[4] = biological target: corresponding murine coagulation proteins; assay: cell-based or functional assay
[5] = biological target: corresponding murine coagulation proteins

Chain of UniProt P00740 (P00740 whole entry, looked up): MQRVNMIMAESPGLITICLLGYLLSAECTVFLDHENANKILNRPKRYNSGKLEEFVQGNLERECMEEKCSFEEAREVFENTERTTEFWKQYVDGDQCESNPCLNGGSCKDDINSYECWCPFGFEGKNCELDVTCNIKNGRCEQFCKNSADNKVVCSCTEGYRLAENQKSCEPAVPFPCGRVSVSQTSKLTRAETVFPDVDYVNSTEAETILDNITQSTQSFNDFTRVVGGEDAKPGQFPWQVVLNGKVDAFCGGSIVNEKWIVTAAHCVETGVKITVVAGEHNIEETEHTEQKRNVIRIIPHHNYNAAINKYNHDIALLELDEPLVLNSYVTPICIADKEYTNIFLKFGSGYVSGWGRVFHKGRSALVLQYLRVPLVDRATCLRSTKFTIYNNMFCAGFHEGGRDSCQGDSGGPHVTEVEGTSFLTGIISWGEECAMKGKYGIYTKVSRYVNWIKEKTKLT

Molecule: purified factor XIa
- cleavage / conversion into activated forms, Western blot [1]: The conversion of FIX into the activated forms (FIXa and FIXb)
- cleavage / in vitro activation, Western blot [2]: after an incubation time of 1 h at 37 °C in the presence of CaCl2, the reaction batch of FXIa, with rFX/FXIa (Q-R/I) as a substrate, shows protein bands of approximately 36 kD and 32 kD which resemble the activated alpha and beta forms (aHCa and bHCa) of the heavy chain of FX
- cleavage, Western blot (negative control) [3]: compared to rFX in the absence of FXIa, no change for rFX is visible in the protein pattern after incubation with FXIa

- Coagulation Time in sec. (aPTT, FIX-def. mouse plasma + rfX/fXIa(Q-R/I)) [4]: 48.6 s
- Coagulation Time in sec. (aPTT, FVIII-def. mouse plasma + rfX/fXIa(Q-R/I)) [4]: 52.5 s
B1: rFX/FXIa (Q-R/I) analog, P00742 41-179; P00742 183-488 (enzyme)
light: ANSFLEEMKKGHLERECMEETCSYEEAREVFEDSDKTNEFWNKYKDGDQCETSPCQNQGKCKDGLGEYTCTCLEGFEGKNCELFTRKLCSLDNGDCDQFCHEEQNSVVCSCARGYTLADNGKACIPTGPYPCGKQTLER
heavy: SVAQATSSSGEAPDSITWKPYDAADLDPTENPFDLLDFNQTQPEQSFNDFTRIVGGQECKDGECPWQALLINEENEGFCGGTILSEFYILTAAHCLYQAKRFKVRVGDRNTEQEEGGEAVHEVEVVIKHNRFTKETYDFDIAVLRLKTPITFRMNVAPACLPERDWAESTLMTQKTGIVSGFGRTHEKGRQSTRLKMLEVPYVDRNSCKLSSSFIITQNMFCAGYDTKQEDACQGDSGGPHVTRFKDTYFVTGIVSWGESCARKGKYGIYTKVTAFLKWIDRSMKTRGLPKAKSHAPEVITSSPLK

B2: rFX/FXIa (Q-R/I) analog (protein)
chain 1: ANSFLEEMKKGHLERECMEETCSYEEAREVFEDSDKTNEFWNKYKDGDQCETSPCQNQGKCKDGLGEYTCTCLEGFEGKNCELFTRKLCSLDNGDCDQFCHEEQNSVVCSCARGYTLADNGKACIPTGPYPCGKQTLER
chain 2: SVAQATSSSGEAPDSITWKPYDAADLDPTENPFDLLDFNQTQPEQSFNDFTRIVGGQECKDGECPWQALLINEENEGFCGGTILSEFYILTAAHCLYQAKRFKVRVGDRNTEQEEGGEAVHEVEVVIKHNRFTKETYDFDIAVLRLKTPITFRMNVAPACLPERDWAESTLMTQKTGIVSGFGRTHEKGRQSTRLKMLEVPYVDRNSCKLSSSFIITQNMFCAGYDTKQEDACQGDSGGPHVTRFKDTYFVTGIVSWGESCARKGKYGIYTKVTAFLKWIDRSMKTRGLPKAKSHAPEVITSSPLK
- % Activity in mouse plasma (aPTT, FIX-def. plasma + rfX/fXIa(Q-R/I)) [5]: 166%
- % Activity in mouse plasma (aPTT, FVIII-def. plasma + rfX/fXIa(Q-R/I)) [5]: 97%
